Consider 9 molecules from patent US20090163594A1, “Triple Assay System for Identifying Substrate Selectivity of Gamma Secretase Inhibitors” (ELAN PHARMACEUTICALS, INC., priority 2007, published 2009).

The test system of series [1] is AICD-GVP nuclear staining in COS-7 cells. The series is described as follows: Immunostaining of transfected COS-7 cells. The class given is cell-based. Conditions: DAPT 5 μM, FIG. 5F. The protocol: Immunostaining: Wild type or transiently transfected COS-7 cells (ATCC) were fixed at room temperature with 2% paraformaldehyde in PBS for 20 min and subsequently permeabilized with 0.2% Triton X-100 in PBS for 10 min. […] All staining was visualized on a Bio-Rad MRC 1024ES confocal microscope (Bio-Rad) and captured with a coupled CCD camera.

Series [2] has as its target T1, gamma secretase, AICD-GVP generated from C99-GVP (Homo sapiens, UniProt P49768).
T1 construct: endogenous in cells
The series is described as follows: Luciferase reporter gene assay, HEK293 cells transfected with C99GVP. The class given is cell-based. Conditions: dose-dependent, FIG. 5C. The protocol: Inhibitor Treatment of Transfected HEK Cell: The transition state analogue gamma secretase inhibitor-L685,458 (Sigma) and the peptidomimetic inhibitor-DAPT (Dovey, H. F., et al., J Neurochem., 2001; 76:173-181) were dissolved in DMSO to make 20 mM stocks. Similarly, a number of Elan's series of sulfonamide inhibitors were prepared and used as described herein (see, also FIGS. 11-14). Inhibitors were added to cell cultures (e.g., HEK) at the indicated final concentration, and the treated cells were harvested 48 h post-transfection. The metallo-proteinase inhibitor TAPI-1 (Calbiochem) was used at a final concentration of 40 μM. The Aβ-degrading enzyme inhibitors, Bacitracin (Calbiochem) and phosphoramidon (Calbiochem) were used at final concentration of 1 mg/ml and 40 μM, respectively. […]
Luciferase Reporter Gene Assay: Luciferase reporter assays were carried out 48 hr post-transfection. […] After adding 100 μl of luminescent substrate (Promega), the luciferase activity was measured with a MicroLumatPlus microplate luminometer (Berthold Technologies). The P-galactosidase activity was measured similarly, using a luminescent β-galactosidase substrate (BD Biosciences). […]
Luciferase Assay. […] Some residual luciferase activity remained in the presence of excess gamma secretase inhibitors, even though identical treatment completely abolished AICD production as measured by Western blot (FIG. 5B).

The target in series [3] is T2, gamma secretase, gamma cleavage (secreted Aβ) (Homo sapiens, UniProt P49768).
T2 construct: endogenous in cells; host or cells: HEK 293, transiently transfected with substrate plasmids
The series is described as follows: Aβ ELISA and IP/Western blot of conditioned media, HEK cells transfected with C99GVP constructs. The class given is cell-based. Also on record: secreted Aβ42: unit not given here. Conditions: for secreted Aβ (Ab40, Ab42, total): 5 μM, 24 h, C99GVP transfectants, FIG. 5D; for Aβ-lowering potency with C99GVP compared with native substrate APP: FIG. 5E; for effect on secreted Aβ / Aβ production: words; for drop of Aβ40: Aβ40 ELISA, FIG. 9C; for reduction in total Aβ: IP/Western blot, FIG. 9B. The protocol:
AICD neo-epitope antibodies were raised against the peptide VMLKKKC (SEQ ID NO:39). […] (FIGS. 15 and 16). P Cell Culture and Transient Transfection: Human embryonic kidney 293 (HEK 293) cells (ATCC) were grown in Dulbecco's Modified Eagle Medium with High Glucose (DMEM, obtained from Gibco/Invitrogen, Cat #11960) supplemented with 10% fetal bovine serum (Hyclone, SV 30014.03) and 50 units/ml penicillin and streptomycin (37° C., 5% CO2). Cells were used at less than passage number 30. At the time of seeding, viability of cells was greater than 95% as determined using a Vi-Cell Analyzer (Beckman-Coulter). Confluence of cells on plates was kept at greater than 95% during all phases of the experiment as determined with a standard tissue culture inverted microscope. All transfections were carried out on 5×10^6 cells in 6-well tissue culture plates (Costar). […] FuGENE6 reagent (Roche Cat. #11-814443001) was used according to manufacturer's protocol for the transient transfection of adherent cells. Transfected cells were reseeded onto 12 well (2×10^6 cells) and/or 96-well (5×10^4 cells) plates (Costar) 16 h post-transfection; fresh media was added either with or without gamma secretase inhibitors. The cells and conditioned media were harvested 48 h post-transfection for analysis.
Inhibitor Treatment of Transfected HEK Cell: The transition state analogue gamma secretase inhibitor-L685,458 (Sigma) and the peptidomimetic inhibitor-DAPT (Dovey, H. F., et al., J Neurochem., 2001; 76:173-181) were dissolved in DMSO to make 20 mM stocks. Similarly, a number of Elan's series of sulfonamide inhibitors were prepared and used as described herein (see, also FIGS. 11-14). Inhibitors were added to cell cultures (e.g., HEK) at the indicated final concentration, and the treated cells were harvested 48 h post-transfection. The metallo-proteinase inhibitor TAPI-1 (Calbiochem) was used at a final concentration of 40 μM. The Aβ-degrading enzyme inhibitors, Bacitracin (Calbiochem) and phosphoramidon (Calbiochem) were used at final concentration of 1 mg/ml and 40 μM, respectively. All inhibitor experiments were performed in triplicate and repeated at least three times.
Immunoprecipitation (IP) and Western Blot Detection of Aβ: Total Aβ peptides in conditioned medium or cell lysate were immuno-precipitated at 4° C. overnight with 4 μg of the 2H3 antibody, followed by incubation with 50 μl of a 50% protein G-Sepharose (GE Healthcare) slurry for 1 hr and three washes in the same lysis buffer as described above in the Western Blot discussion. Proteins were eluted from the solid-phase immunoprecipitates in Laemmli sample buffer by heating at 70° C. for 5 min and resolved on 10-20% Tris-Tricine SDS-PAGE or the modified Tris-Tricine/8M urea gels (Qi-Takahara, Y., et al., J Neurosci. (2005; 25, 436-445). After transferring onto nitrocellulose membranes (Invitrogen), the membranes were heated to 98° C. for 5 min in PBS, immunostained with the 2H3 antibody and visualized with Super-signal West Pico chemiluminescent substrate (Pierce). Each experiment was repeated at least three times.
(§1) ELISAs used to quantify different Aβ species were performed using standard techniques as described above and in (Johnson-Wood, K., et al., Proc. Natl. Acad. Sci. U.S.A., 1997; 94: 1550-1555, incorporated by reference). The Aβ40 and Aβ42 peptides in the samples were captured onto 2G3 or 21F12 antibody coated plates, respectively, and detected with a biotinylated 2H3 antibody. The fluorescence signal generated from a streptavidin-alkaline phosphatase conjugate (Roche) was measured with a CytoFlour microplate reader (Applied Biosystems). Synthetic Aβ40 or Aβ42 peptides (Anaspec) were used to generate standard curves (FIG. 10). All measurements were done in triplicate.

The target in series [4] is T3, gamma secretase, APP γ and ε cleavage (Homo sapiens, UniProt P49768).
T3 construct: endogenous in cells; host or cells: 293 cells transfected with Fas-APPsw-DD
The series can be described thus: Aβ and AICD ELISA, Fas-APPsw-DD transfected 293 cells. Format: cell-based. Here is the method: as §1
An AICD sandwich ELISA was established based on capture of cell lysates with any of the AICD polyclonal or monoclonal antibodies discussed above, and reporting back with antibody directed at the extreme C-terminus of APP (e.g., 13G8, prepared in-house). Alternatively, luciferase-based reporter assays can be used to detect and quantify the presence of AICD and correlate those numbers to inhibitory potency of known or potential gamma secretase inhibitor compounds.
Polyclonal antibody AICD ELISA. HEK 293 cells were grown under standard conditions to ˜90% confluence. Cells were harvested, counted, and subsequently plated onto PDL-coated 60 mm dishes at 2×10^6 cells/dish in 5 mL media. […]

Setting [5] is: transient expression in HEK cells, ELISA.

Consider `C[C@H](NC(=O)Cc1cc(F)cc(F)c1)C(=O)N[C@H](C(=O)OC(C)(C)C)c1ccccc1` [DAPT], for which, in series [1], the “nuclear staining of AICD-GVP” value is reported as “abolished”. The “luciferase reporter transactivation by AICD-GVP” value in series [2] is recorded as “block luciferase reporter transactivation”. For the same molecule, the “secreted Aβ (Ab40, Ab42, total)” value in [3] was “block secreted Aβ”. In addition, in series [3] (ELISA), the “Aβ-lowering potency with C99GVP compared with native substrate APP” value was “equal Ab potency”. In series [4], the “γ/ε selectivity = IC50 AICD/IC50 Aβ” value is given as 0.7.

On to `CC(C)C[C@H](NC(=O)[C@H](Cc1ccccc1)C[C@@H](O)[C@H](Cc1ccccc1)NC(=O)OC(C)(C)C)C(=O)N[C@@H](Cc1ccccc1)C(N)=O` [L-685,458, reference compound], for which, in series [2], the “luciferase reporter transactivation by AICD-GVP” value is given as “block luciferase reporter transactivation”. In [3], the “secreted Aβ (Ab40, Ab42, total)” value is given as “block secreted Aβ”. Besides, the “Aβ-lowering potency with C99GVP compared with native substrate APP” value in [3] (ELISA) is reported as “equal Ab potency”. The “γ/ε selectivity = IC50 AICD/IC50 Aβ” value in series [4] is listed as 1.9.

Consider “C99GVP: 99 amino acid C-terminal fragment of APP with Gal4-VP16 domain inserted (SEQ ID NO:47)”, for which the “Aβ42 fraction of the total Aβ” value in series [3] (transient expression in HEK cells) turned out to be 15.7±2.5%. In addition, in series [3] (setting [5]), the “secreted Aβ40” value was determined as 210.8 ± 19.2 pM and the “secreted Aβ42” value worked out at 39.1±6.4.

Take “G25S: C99GVP point mutant in the GSNK motif (SEQ ID NO:43) (LEDAEFRHDSGYEVHHQKLVFFAEDVSSNKGAIIGLMVGGVVIATVIVITLVML)”: the “effect on secreted Aβ / Aβ production” value in series [3] (versus C99GVP control) is given as “no obvious effect”.

In the case of “K28S: C99GVP point mutant in the GSNK motif (SEQ ID NO:46) (LEDAEFRHDSGYEVHHQKLVFFAEDVGSNSGAIIGLMVGGVVIATVIVITLVML)”, in [3] (versus C99GVP control), the “drop of Aβ40” value is on record as roughly 90% and the “reduction in total Aβ” value is reported as roughly 90%.

On to “N27S: C99GVP point mutant in the GSNK motif (SEQ ID NO:45) (LEDAEFRHDSGYEVHHQKLVFFAEDVGSSKGAIIGLMVGGVVIATVIVITLVML)”, for which the “effect on secreted Aβ / Aβ production” value in series [3] (versus C99GVP control) is recorded as “no obvious effect”.

Turning to “S26L: C99GVP point mutant in the GSNK motif (SEQ ID NO:44) (LEDAEFRHDSGYEVHHQKLVFFAEDVGLNKGAIIGLMVGGVVIATVIVITLVML)”, in series [3] (versus C99GVP control), the “drop of Aβ40” value is 52.7±2.3% and the “reduction in total Aβ” value is 65.7±8.5%.

Turning to gamma secretase, the “decrease in total Aβ and in Aβ40” value in the series on C99GVP-K28S was “an even more substantial (˜90%) decrease in both measurements”. Besides, the “secreted Aβ” value in the series on C99GVP-G25S is recorded as “showed no obvious effect on secreted Aβ”. Moreover, the “Aβ secretion (western blot and Aβ40 ELISA of conditioned media)” value in the series with C99GVP-SREBP1-gsnk is recorded as “also maintained normal Aβ secretion”. Moreover, the “secreted Aβ” value with C99GVP-N27S is “showed no obvious effect on secreted Aβ”. For the same molecule, in the series with C99GVP-SLSS, the “reduction in secreted Aβ” value is listed as “marked reduction (˜97%) in secreted Aβ”. In addition, in the series with C99GVP-S26L, the “drop of Aβ40” value was 52.7±2.3% drop of Aβ40 and the “reduction in total Aβ” value amounted to 65.7±8.5% reduction in total Aβ.

B1: C99GVP-SLSS: C99GVP in which the GSNK motif is substituted with SLSS from APLP2 (SEQ ID NO:51) (protein)
chain: DAEFRHDSGYEVHHQKLVFFAEDVSLSSGAIIGLMVGGVVIATVIVITLVMLKKKKLLSSIEQACDICRLKKLKCSKEKPKCAKCLKNNWECRYSPKTKRSPLTRAHLTEVESRLERLEQLFLLIFPREDLDMILKMDSLQDIKALLTGLFVQDNVNKDAVTDRLASVETDMPLTLRQHRISATSSSEESSNKGQRQLTVSGIPGDLAPPTDVSLGDELHLDGEDVAMAHADALDDFDLDMLGDGDSPGPGFTPHDSAPYGALDMADFEFEQMFTDALGIDEYGGQYTSIHHGVVEVDAAVTPEERHLSKMQQNGYENPTYKFFEQMQN
Take B1: the “reduction in secreted Aβ” value in series [3] (versus C99GVP control, FIG. 9B and 9C) is given as roughly 97%.
